Assay results published in paper PMC9279153, “Structure of the Dicer-2–R2D2 heterodimer bound to a small RNA duplex”.

How the values were obtained:
Dicer-2;R2D2 [1] = target: T1, Dicer-2;R2D2 (Drosophila;Drosophila, UniProt A1ZAW0;Q9VLW8 1-1722;1-311, |); assay: cryo-EM; two duplexes: one on R2D2 (well resolved), one on Dicer-2 helicase (poorly resolved); Crosslinking: 20 nM siRNA, 40 nM Dicer-2-R2D2, 30 min, >300 nm UV 60 s, buffer not given; structure: 30 mM Hepes-KOH pH 7.4, 100 mM potassium acetate, 2 mM magnesium acetate, 1 mM DTT, 0.02% glycerol, protein:siRNA 1:2 mixed at room temperature; conditions: protein: recombinant;recombinant; tags: 8xHis (structure prep);3xFlag; copies: 1;1; 19-nt duplex region with U-U mismatch at g1:p19; 3' overhang 2 nt on both strands
Dicer-2;R2D2 [2] = target: T1, Dicer-2;R2D2; assay: photocrosslinking; g* crosslinks to R2D2; Crosslinking: 20 nM siRNA, 40 nM Dicer-2-R2D2, 30 min, >300 nm UV 60 s, buffer not given; structure: 30 mM Hepes-KOH pH 7.4, 100 mM potassium acetate, 2 mM magnesium acetate, 1 mM DTT, 0.02% glycerol, protein:siRNA 1:2 mixed at room temperature; conditions: protein: recombinant;recombinant; tags: 8xHis (structure prep);3xFlag; copies: 1;1; 3' overhang 2 nt on both strands
Dicer-2;R2D2 K98A = Dicer-2;R2D2 K98A (Drosophila;Drosophila, UniProt A1ZAW0;Q9VLW8 1-1722;1-311, |K98A); assay: photocrosslinking; g* crosslinking not affected by K98A; Crosslinking: 20 nM siRNA, 40 nM Dicer-2-R2D2, 30 min, >300 nm UV 60 s, buffer not given; structure: 30 mM Hepes-KOH pH 7.4, 100 mM potassium acetate, 2 mM magnesium acetate, 1 mM DTT, 0.02% glycerol, protein:siRNA 1:2 mixed at room temperature; conditions: protein: recombinant;recombinant; tags: 8xHis (structure prep);3xFlag; copies: 1;1; 3' overhang 2 nt on both strands
Dicer-2;R2D2 CTD Δα2 = Dicer-2;R2D2 CTD Δα2 (Drosophila;Drosophila, UniProt A1ZAW0;Q9VLW8 1-1722;1-201+=GGGS+215-311, |internal_change); assay: photocrosslinking; g* crosslink to R2D2 abolished, g* crosslink to Dicer-2 increased (opposite orientation); Crosslinking: 20 nM siRNA, 40 nM Dicer-2-R2D2, 30 min, >300 nm UV 60 s, buffer not given; structure: 30 mM Hepes-KOH pH 7.4, 100 mM potassium acetate, 2 mM magnesium acetate, 1 mM DTT, 0.02% glycerol, protein:siRNA 1:2 mixed at room temperature; conditions: protein: recombinant;recombinant; tags: 8xHis (structure prep);3xFlag; copies: 1;1; 3' overhang 2 nt on both strands
Dicer-2;R2D2 [3] = target: T1, Dicer-2;R2D2; assay: photocrosslinking; crosslinks to R2D2; Crosslinking: 20 nM siRNA, 40 nM Dicer-2-R2D2, 30 min, >300 nm UV 60 s, buffer not given; structure: 30 mM Hepes-KOH pH 7.4, 100 mM potassium acetate, 2 mM magnesium acetate, 1 mM DTT, 0.02% glycerol, protein:siRNA 1:2 mixed at room temperature; conditions: protein: recombinant;recombinant; tags: 8xHis (structure prep);3xFlag; copies: 1;1; 3' overhang 2 nt on strand 2; U-U mismatch at nt 1 of strand 1
Dicer-2;R2D2 [4] = target: T1, Dicer-2;R2D2; assay: photocrosslinking; crosslinks to R2D2, similar to 2-nt overhang; Crosslinking: 20 nM siRNA, 40 nM Dicer-2-R2D2, 30 min, >300 nm UV 60 s, buffer not given; structure: 30 mM Hepes-KOH pH 7.4, 100 mM potassium acetate, 2 mM magnesium acetate, 1 mM DTT, 0.02% glycerol, protein:siRNA 1:2 mixed at room temperature; conditions: protein: recombinant;recombinant; tags: 8xHis (structure prep);3xFlag; copies: 1;1; U-U mismatch at nt 1 of strand 1

T1 sequence (A1ZAW0 whole entry, chain 1 of 2): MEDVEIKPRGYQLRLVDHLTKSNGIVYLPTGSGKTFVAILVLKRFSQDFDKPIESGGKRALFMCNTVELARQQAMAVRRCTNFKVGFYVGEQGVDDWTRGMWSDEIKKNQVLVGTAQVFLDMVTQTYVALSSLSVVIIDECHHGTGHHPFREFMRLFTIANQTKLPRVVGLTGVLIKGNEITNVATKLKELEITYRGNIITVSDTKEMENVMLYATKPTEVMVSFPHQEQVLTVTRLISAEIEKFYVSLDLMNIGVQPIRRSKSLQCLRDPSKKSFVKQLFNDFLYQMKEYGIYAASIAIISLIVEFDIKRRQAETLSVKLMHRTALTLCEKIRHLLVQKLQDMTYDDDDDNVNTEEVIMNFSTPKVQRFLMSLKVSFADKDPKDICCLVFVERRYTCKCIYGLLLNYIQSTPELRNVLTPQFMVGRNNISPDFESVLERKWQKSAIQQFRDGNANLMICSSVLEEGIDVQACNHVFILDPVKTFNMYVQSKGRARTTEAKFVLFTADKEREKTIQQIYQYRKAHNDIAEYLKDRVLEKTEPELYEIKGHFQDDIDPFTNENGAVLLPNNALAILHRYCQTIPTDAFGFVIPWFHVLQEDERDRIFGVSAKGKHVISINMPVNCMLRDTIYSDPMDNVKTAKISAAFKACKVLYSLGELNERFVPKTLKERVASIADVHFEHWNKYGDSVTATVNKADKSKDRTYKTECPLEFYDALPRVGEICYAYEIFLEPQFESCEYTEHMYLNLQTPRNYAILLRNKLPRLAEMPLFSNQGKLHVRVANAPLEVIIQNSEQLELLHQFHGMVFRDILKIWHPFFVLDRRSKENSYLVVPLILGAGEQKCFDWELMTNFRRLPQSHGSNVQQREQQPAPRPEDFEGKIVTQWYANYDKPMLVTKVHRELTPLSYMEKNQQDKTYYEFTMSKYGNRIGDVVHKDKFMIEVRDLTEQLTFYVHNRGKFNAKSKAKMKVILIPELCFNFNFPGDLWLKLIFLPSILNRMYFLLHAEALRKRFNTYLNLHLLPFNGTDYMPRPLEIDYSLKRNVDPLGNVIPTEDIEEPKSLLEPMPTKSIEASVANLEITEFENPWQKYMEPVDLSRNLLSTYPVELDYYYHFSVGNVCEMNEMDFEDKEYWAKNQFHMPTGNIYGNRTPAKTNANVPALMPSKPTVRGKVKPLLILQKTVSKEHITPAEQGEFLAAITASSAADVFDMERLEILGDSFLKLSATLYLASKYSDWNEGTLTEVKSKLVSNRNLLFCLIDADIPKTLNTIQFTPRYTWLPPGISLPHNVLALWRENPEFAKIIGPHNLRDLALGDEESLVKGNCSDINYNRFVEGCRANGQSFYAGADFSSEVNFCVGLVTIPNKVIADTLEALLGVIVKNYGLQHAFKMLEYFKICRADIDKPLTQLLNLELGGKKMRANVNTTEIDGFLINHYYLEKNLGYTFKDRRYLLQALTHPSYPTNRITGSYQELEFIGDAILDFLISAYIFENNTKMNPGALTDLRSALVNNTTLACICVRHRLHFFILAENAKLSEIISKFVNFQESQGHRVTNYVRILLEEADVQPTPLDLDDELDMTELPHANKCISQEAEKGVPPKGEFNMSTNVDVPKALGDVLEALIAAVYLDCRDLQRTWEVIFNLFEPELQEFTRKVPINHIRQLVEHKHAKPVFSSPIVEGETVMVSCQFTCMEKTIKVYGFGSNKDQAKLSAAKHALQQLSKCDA
T1 sequence (chain, as listed by the source |, chain 2 of 2): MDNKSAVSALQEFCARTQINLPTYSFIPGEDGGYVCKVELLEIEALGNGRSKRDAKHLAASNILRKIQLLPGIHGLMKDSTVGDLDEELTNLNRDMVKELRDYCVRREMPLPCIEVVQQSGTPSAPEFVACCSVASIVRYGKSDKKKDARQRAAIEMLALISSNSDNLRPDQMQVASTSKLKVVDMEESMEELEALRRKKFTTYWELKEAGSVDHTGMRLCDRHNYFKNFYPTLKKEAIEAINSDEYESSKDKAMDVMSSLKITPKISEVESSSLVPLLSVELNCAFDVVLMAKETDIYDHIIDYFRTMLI
Dicer-2;R2D2 K98A, sequence (A1ZAW0 whole entry, chain 1 of 2): as the sequence (A1ZAW0 whole entry, chain 1 of 2) above
Dicer-2;R2D2 K98A, sequence (chain, as listed by the source |K98A | K98A K98A, chain 2 of 2): as the sequence (chain, as listed by the source |, chain 2 of 2) above, with K98A counted along it
Dicer-2;R2D2 CTD Δα2, sequence (A1ZAW0 whole entry, stated change not applied, chain 1 of 2): as the sequence (A1ZAW0 whole entry, chain 1 of 2) above
Dicer-2;R2D2 CTD Δα2, sequence (chain, as listed by the source | | mutant, chain 2 of 2): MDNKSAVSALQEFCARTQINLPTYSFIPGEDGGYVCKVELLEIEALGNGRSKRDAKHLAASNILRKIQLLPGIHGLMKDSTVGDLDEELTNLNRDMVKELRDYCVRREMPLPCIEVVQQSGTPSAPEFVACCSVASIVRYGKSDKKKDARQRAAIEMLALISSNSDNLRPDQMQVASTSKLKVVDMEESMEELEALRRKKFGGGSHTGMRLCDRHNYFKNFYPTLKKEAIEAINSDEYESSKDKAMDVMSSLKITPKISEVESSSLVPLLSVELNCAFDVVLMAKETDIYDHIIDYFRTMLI

B1: let-7 siRNA duplex (guide/passenger) (dsRNA)
RNA 1: UGAGGUAGUAGGUUGUAUAGU
RNA 2: UAUACAACCUACUACCUCUCU
modifications: 5'-phosphate (passenger p1)
binding result (Dicer-2;R2D2 [1]): binds

B2: g* siRNA, 2-nt overhang (siRNA-1/siRNA-2) (dsRNA)
RNA 1: UGAGGUAGUAGGUUGUAUAUU
RNA 2: UAUACAACCUACUACCUCUUU
modifications: 5-iodouracil at position 20 of strand 1 (written as U)
binding result (Dicer-2;R2D2 [2]): binds
binding result (Dicer-2;R2D2 K98A): binds
binding result (Dicer-2;R2D2 CTD Δα2): binds

B3: g* siRNA, blunt stable end (siRNA-4/siRNA-5) (dsRNA)
RNA 1: UGAGGUAGUAGGUUGUAUAU
RNA 2: AUAUACAACCUACUACCUCUUU
modifications: 5-iodouracil at position 20 of strand 1 (written as U)
binding result (Dicer-2;R2D2 [3]): binds

B4: g* siRNA, 1-nt overhang (siRNA-4/siRNA-2) (dsRNA)
RNA 1: UGAGGUAGUAGGUUGUAUAU
RNA 2: UAUACAACCUACUACCUCUUU
modifications: 5-iodouracil at position 20 of strand 1 (written as U)
binding result (Dicer-2;R2D2 [4]): binds
